Legend:
Assay in all cases: EMSA
Conditions in all cases: buffer, room temperature
[1] = tested on: LeuO (Vibrio cholerae)
[2] = tested on: H-NS (Vibrio cholerae)
[3] = tested on: HapR (Vibrio cholerae)

Substance	Kd [1] [nM]	Kd [2] [nM]	Kd [3] [nM]
vieSAB promoter, El Tor biotype (EMSA)	31.2	52.3	–
vieSAB promoter -198 to +70	–	–	174
vieSAB promoter, classical biotype (EMSA)	31.2	44.1	–

From article PMC5777889
